B1: FBF1 (parent)
chain: FGDSPKAEKRQIGDQEGPRPARST

Variants of: B1
Experiment: protein stability index of a GFP-peptide fusion (GPS, HEK-293T) (PSI 1-6); higher = more stable
Details: c terminus: a fixed tail appended
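Also: lentivirally expressed fusions sorted by FACS into six bins by GFP to DsRed ratio, PSI derived from sequencing read proportions per bin multiplied by bin number.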

Protein stability index of substitutions, site by site:
P5: F 3.64 | S 4.84 | H 5 | G 4.79 | N 5.53 | W 1.37 | Y 4.86 | A 4.85
R19: I 5.08 | D 5.3 | F 4.87 | G 5.13 | C 5.4 | Q 4.91
Q15: Y 4.53 | W 4.25 | R 4.28 | V 4.81
F1: R 5.67 | W 5.69 | G 5.72 | P 5.58 | M 5.85 | H 5.52 | L 5.36 | D 5.81 | A 5.87
I12: V 5.4 | P 5.12 | S 5.47 | G 5.03 | A 4.73 | N 5.5 | E 5.27 | T 4.32
P18: C 5.22 | E 5.54 | Q 4.72 | I 4.17 | D 5.48 | G 5.33 | S 4.87
R22: C 5.26 | M 5.72 | E 4.79 | N 5.66 | W 3.86 | D 5.27
G2: V 1.77 | I 3.83 | P 5.29 | N 4.16 | E 5.83 | W 5.31 | T 4.82
Q11: P 5.25 | T 5 | V 5.08 | I 4.61 | Y 4.45 | G 5.34 | S 5.29
K6: L 4.84 | W 4.57 | Q 3.71 | I 4.78 | E 5.25 | S 5.64
S4: K 4.79 | F 4.75 | G 4.96 | W 2.73 | L 5.27 | N 4.79 | P 5.05 | E 5.2 | Q 4.75
R10: T 5.58 | H 4.63 | A 5.42 | I 5.19 | E 5.63 | M 5.06
K9: V 4.89 | H 5.22 | G 5.2 | N 5.93
D14: V 4.72 | N 5.15 | A 4.87 | G 4.71 | M 4.1 | L 4.68 | H 5 | S 4.84
T24: D 4.52 | Q 5.62 | I 4.45 | N 5.34 | E 5.3 | A 4.91 | H 4.98
A21: H 4.93 | C 5.2 | S 4.37 | R 4.59 | G 5.73 | Q 5.62 | M 4.92 | K 5.23 | I 4.77 | N 5.34 | Y 4.86 | V 5.42
A7: L 5.32 | H 4.03 | S 5.09 | I 5.03 | N 5.24 | K 5.31
G13: Y 4.86 | N 5.01 | I 4.44 | Q 5.45 | C 5.04 | T 5.03 | M 4.24
S23: C 4.66 | A 5.25 | E 5.03 | R 4.78
E8: Q 4.48 | S 4.58 | Y 3.39 | T 3.77 | N 4.53 | D 5.48 | I 4.26 | P 4.97
P20: H 4.95 | E 5.58 | N 4.89 | A 5.25 | R 5.26
G17: V 4.42 | A 5.52 | D 5.24 | P 5.54 | N 5.06 | F 4.57 | W 4.17 | Y 4.68 | K 5.02 | S 5.46
D3: L 5.13 | M 4.57 | Q 5.25 | K 4.17 | P 5.14 | Y 4.67 | H 4.49
E16: P 5.09 | D 5.75 | S 5.27 | K 4.81 | Q 5.19 | C 4.79

Reference: the supplement of paper PMC10567573
